137 substances from the supplement of paper PMC12042874 can be followed below.

± gives the uncertainty stated by the source.

The series in a line: amyloid nucleation score (Sup35N fusion, yeast selection) (log enrichment); library NNK2; higher = more nucleation; inactive = no reads after selection. In a few lines: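 The nucleation score is the log enrichment of output over input reads, calculated with DiMSum and centred on the mode score of non-aggregating sequences. Sequences with under 100 input reads were excluded. Reads came from Illumina sequencing of plasmid inserts from psi-negative yeast expressing Sup35N fused to peptides of 20 random codons, induced 24 hours with 100 μM copper sulfate and grown 7 days at 30°C without adenine and uracil.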
Consider FSCSLQRIGEMSRDKSYTPA, for which the amyloid nucleation score was determined as 0.503 ± 0.66.

In turn, RGADIAVRNFFDYQRRRWCN displayed an amyloid nucleation score of 0.222 ± 0.44.

As to DLSLESLRSNEVEAVNMFVF, the amyloid nucleation score entry is “inactive”.

As to TRMCGMGTQGGLSRF, the amyloid nucleation score is 0.257 ± 0.65.

For GLISDYFSPSCIVYAGVR, the amyloid nucleation score result was “inactive”.

Take NDSVRTVGCIQYMMRIASVF: the amyloid nucleation score was 0.783 ± 0.57.

AFDEVSSFGGFFERCFWIKL showed an amyloid nucleation score of 5.91 ± 0.076.

CGRRILSRWVITLLVPGGSF: the amyloid nucleation score result is “inactive”.

The substance LSFKRDELVNLNRFSVQFAQ gave an amyloid nucleation score of -0.694 ± 0.38.

For YYHCPTSFFYIV, the amyloid nucleation score result was “inactive”.

In the case of LLNGPVYFFNLWVHGAC, the amyloid nucleation score came out at 8.126 ± 0.052.

On to VAIGLLVEGGFFIHRNICLW, for which the amyloid nucleation score was -1.36 ± 0.62.

As to AVVFSNCGCFSMKFYMVVAT, the amyloid nucleation score is -2.06 ± 0.48.

As for YQLLLFV, the amyloid nucleation score was -0.969 ± 0.41.

Substance SVTGPILICVSLIASFRRSM came in with an amyloid nucleation score of 4.27 ± 0.061.

On to CMPMISRVLGCDNSYYMSSA, for which the amyloid nucleation score came to 0.029 ± 0.4.

RHADF showed an amyloid nucleation score of 1.39 ± 0.27.

The substance IFDAFWYTVTVRDNDG gave an amyloid nucleation score of 1.76 ± 0.17.

Substance MMRVTIPGVVLSCWPFGSTR showed an amyloid nucleation score of 3.09 ± 0.11.

In turn, SQCARKYVVASVSMLTDVTH returned an amyloid nucleation score of 1.13 ± 0.31.

Regarding LLLCYS, the amyloid nucleation score was -0.344 ± 0.27.

In turn, IRFWLRRFICD registered an amyloid nucleation score of -0.528 ± 0.36.

As to MHASGHWYMKRSSLGADSPV, the amyloid nucleation score was 0.815 ± 0.18.

KVNKMPYSLFIYLKKLNFC registered an amyloid nucleation score of -0.518 ± 1.1.

LLARVYKTICCMNWGFRNE displayed an amyloid nucleation score of 2.06 ± 0.1.

In the case of ISFDLCIKRWQK, the amyloid nucleation score was determined as 5.946 ± 0.054.

For EGSCYIWGSMAITFNAHHDR, the amyloid nucleation score turned out to be 5.68 ± 0.077.

For FLICGHCWGPNTYYNTSVLM, the amyloid nucleation score is 7.8 ± 0.061.

The substance AFYKFMSEHSSAVHCDPMHD had an amyloid nucleation score of -0.025 ± 0.76.

With VFTSGSRCHPWLE, the amyloid nucleation score was 1.45 ± 0.27.

LMKSIVGFMNESPLVIEFGR registered an amyloid nucleation score of -0.402 ± 0.27.

SNYSPGFLCWALESSTNM gave an amyloid nucleation score of -0.99 ± 1.1.

ISCKSFENTTHPALIPRVKA came in with an amyloid nucleation score of -0.331 ± 0.5.

Consider PDSMGKVIYYKSESCFYSRG, for which the amyloid nucleation score was determined as 2.72 ± 0.086.

For the substance ADSWWSLYNIFEFSSINLNV, the amyloid nucleation score entry was “inactive”.

In turn, RSQIPNYYWQYMLVYSYLQG returned an amyloid nucleation score of 0.201 ± 0.74.

Substance VTANNFKWVVIWLSWRGYGD gave an amyloid nucleation score of -1.48 ± 1.1.

APVMYVT returned an amyloid nucleation score of 0.057 ± 0.48.

LFSYDDMGALRVNMDWFYNF: the amyloid nucleation score result was “inactive”.

Substance PGFKSCIP returned an amyloid nucleation score of 0.598 ± 0.28.

Take FDPSMSFNWCICSFELDWAG: the amyloid nucleation score stood at 5.321 ± 0.032.

SKFDLYAKFMIRINRLFVLW: the amyloid nucleation score is -1.59 ± 0.41.

As for MLLHMWCWIGPGKYLSVTKF, the amyloid nucleation score entry is “inactive”.

KIRSLCPRRKVILSASGQQL displayed an amyloid nucleation score of 0.971 ± 0.17.

MYTAMSDSPFNVWRYGMSSY returned an amyloid nucleation score of -0.382 ± 0.29.

As for ALFVYYDIQVVGITY, the amyloid nucleation score is -1.1 ± 0.4.

The substance GYYAPIPLKCVDSEASLRYR had an amyloid nucleation score of 0.308 ± 0.36.

Consider TDIKNRHILSNPWIRLYFLI, for which the amyloid nucleation score is -1.16 ± 0.62.

QWSAILFSMRWFVKKSEFSC came in with an amyloid nucleation score of 3.48 ± 0.052.

Regarding IICAKDMFNLFIKVRQYGWS, the amyloid nucleation score was determined as 4.698 ± 0.038.

Consider CLRILGDISSFRGMRHTTLH, for which the amyloid nucleation score amounted to 0.042 ± 1.1.

In the case of IMLATAAYFVLLGIFPGAWF, the amyloid nucleation score result was “inactive”.

For the substance CIIVISFLTITWKCAEPELQ, the amyloid nucleation score result was “inactive”.

YWANGSDEDSVGGNIDAVGD: the amyloid nucleation score was -1.07 ± 0.55.

In turn, GNRVWERTNFELSSDRESGV registered an amyloid nucleation score of 0.832 ± 0.27.

Take ADGFVSSIVLT: the amyloid nucleation score is 0.006 ± 0.24.

As to LINLVWTDEITMSDYMKRSG, the amyloid nucleation score came out at 0.858 ± 0.17.

For the substance HVYPVWFCWLYSFRLHYSQV, the amyloid nucleation score is -0.149 ± 0.56.

In the case of WTLTGHVRNLKLQVCMSVY, the amyloid nucleation score worked out at 0.789 ± 0.6.

For RSFGSYCAGEGTRSPRDSRG, the amyloid nucleation score was found to be 0.172 ± 0.65.

The substance DMRTIGEHCW had an amyloid nucleation score of 1.02 ± 0.52.

Substance KWNQKKNRSCFKAQRWCKLP gave an amyloid nucleation score of -0.637 ± 1.1.

The substance NKVEALLWTKTTLQCSLRSV displayed an amyloid nucleation score of 4.82 ± 0.059.

With KRFIWCFRVTLFT, the amyloid nucleation score is -0.633 ± 1.1.

On to RWCQE, for which the amyloid nucleation score is -0.288 ± 0.53.

For the substance FYVSAFMHIKVLYPVNNRLG, the amyloid nucleation score worked out at 3.62 ± 0.11.

Consider IRLTSAYLHSDVWGVMQWNK, for which the amyloid nucleation score was determined as 4.823 ± 0.041.

As for PPHRAYGILMMNTRRTSSIT, the amyloid nucleation score is 0.604 ± 0.37.

For VGGQRHWYLYHDSLHFPQLE, the amyloid nucleation score is 0.396 ± 0.62.

As for LFRYQRPLYGVRRTSTKVMA, the amyloid nucleation score amounted to 0.226 ± 0.37.

Substance SEFYIRLQYNNVVIVDLFEV came in with an amyloid nucleation score of -0.701 ± 0.63.

CLFSILLVMIPASFYTAMWL came in with an amyloid nucleation score of -0.588 ± 1.1.

As for FRYAVPMCTFFADYFMSDQS, the amyloid nucleation score entry was “inactive”.

For MRGTRACIFKRQDTSNTLNE, the amyloid nucleation score is -1.42 ± 0.62.

GCGCATGREDTPGNIGWMV came in with an amyloid nucleation score of 0.507 ± 0.25.

In turn, HTVLPWYTIRYKWEGVGLTD had an amyloid nucleation score of 0.403 ± 0.45.

Take EALYALLSGGASNLKSHRLL: the amyloid nucleation score is 0.26 ± 0.65.

SGRCNSN gave an amyloid nucleation score of -0.63 ± 0.79.

For VRFQELAR, the amyloid nucleation score was found to be 0.343 ± 0.27.

In turn, VGVWATGRGCSISEYNGKNR registered an amyloid nucleation score of 1.09 ± 0.12.

YGDGGDIC displayed an amyloid nucleation score of -0.612 ± 0.35.

Take QELIDIGTNSFVDCCS: the amyloid nucleation score result was “inactive”.

Regarding CASMVIMG, the amyloid nucleation score entry is “inactive”.

Consider HFCYYMCFEWLDTIVAYYLG, for which the amyloid nucleation score was -0.337 ± 1.1.

Substance GIMSVGTAKWRDGQPSACRK showed an amyloid nucleation score of 0.996 ± 0.37.

AFICMFVIRFDWYNMS returned an amyloid nucleation score of -0.558 ± 1.

Consider VIYLIGSHYTLVSNRLYEIG, for which the amyloid nucleation score was determined as 8.186 ± 0.08.

QNDLIWSSW had an amyloid nucleation score of -1.32 ± 0.49.

The substance RSCSFRRLSGSVETLSGWAK had an amyloid nucleation score of 0.35 ± 0.43.

As to MGRTHRTTTPGSRFYTSTAF, the amyloid nucleation score is -0.57 ± 1.

KTKLIRVFSTCRT: the amyloid nucleation score result was “inactive”.

MLDVVARNH showed an amyloid nucleation score of 1.52 ± 0.3.

For the substance ANPQSKLLNVSFIGTVQGWV, the amyloid nucleation score worked out at 3.04 ± 0.12.

As to MRHILCISSVGRFNFRCCFK, the amyloid nucleation score was -0.038 ± 1.

In turn, PLQPNAIRRSMVSF displayed an amyloid nucleation score of 0.894 ± 0.43.

As to IRTDSTNMCF, the amyloid nucleation score was -0.647 ± 1.1.

In the case of KRVFMWRSG, the amyloid nucleation score is -0.424 ± 1.1.

In turn, TRFTYCFVVRNLVTRNRPIS had an amyloid nucleation score of -0.646 ± 0.22.

In the case of VSVVDGSILMNLCLRLVLRR, the amyloid nucleation score is -0.068 ± 0.79.

RSLLVEFRRYKQRH yielded an amyloid nucleation score of 6.238 ± 0.062.

With FIQVSHCYAKMPYTTVTPGA, the amyloid nucleation score is -0.191 ± 0.79.

Substance QNGTERGFFCSKLNRSVTLL returned an amyloid nucleation score of 0.358 ± 0.65.

In the case of VRDSSNYMTLFRCSNFWHTR, the amyloid nucleation score was 6.488 ± 0.051.

Substance EGSLPLGRSSCPGTLHDGMI gave an amyloid nucleation score of 0.922 ± 0.34.

With FIGNF, the amyloid nucleation score was 0.636 ± 0.19.

As for SCYLALKFTFRLFVLKSEGL, the amyloid nucleation score was -0.202 ± 1.

For VLSLHDSVLLYRSAGIRYGW, the amyloid nucleation score is 5.03 ± 0.058.

For the substance RYYLNL, the amyloid nucleation score stood at 3.83 ± 0.091.

SWNMIQSTIFLPCNLGDYTV: the amyloid nucleation score turned out to be 5.678 ± 0.048.

Substance SSLDWWSCSGFLNKQQIKSN registered an amyloid nucleation score of 1.08 ± 0.12.

ILRLTAVCHGHFAVRPDWKR displayed an amyloid nucleation score of 0.248 ± 0.35.

Turning to MGQTVSRPWQAGSLYGANPC, the amyloid nucleation score was found to be 0.926 ± 0.45.

Regarding NKRPSRTNLWIKALVRP, the amyloid nucleation score entry is “inactive”.

The substance VIFTGKDLLVSLQTKCLAVW showed an amyloid nucleation score of 0.942 ± 0.81.

Consider SFVTCCVSCGWRGQIHAEKL, for which the amyloid nucleation score turned out to be 6.78 ± 0.073.

In turn, VNFLWE gave an amyloid nucleation score of -0.447 ± 1.1.

The substance IILFTIARDLSRVGFRFLMA had an amyloid nucleation score of -0.545 ± 0.56.

Turning to TIFHLRDSYINHAKLSSLHG, the amyloid nucleation score entry was “inactive”.

VSCCNLVVDLKRTILLFGGR came in with an amyloid nucleation score of 7.504 ± 0.052.

The substance VSAWWQDVYSCTHTHAPAAQ showed an amyloid nucleation score of 5.46 ± 0.098.

For the substance SSPKSWNILS, the amyloid nucleation score was 0.106 ± 0.48.

GRILNFMSHDWGDHMICGKK: the amyloid nucleation score came to 0.65 ± 0.66.

HYMDSNIVLNSAKSRRKDAW registered an amyloid nucleation score of 0.132 ± 0.24.

Turning to GNRLRIKLL, the amyloid nucleation score is -0.2 ± 0.27.

YIVACSWYSGLLGLVGYRRK: the amyloid nucleation score turned out to be 7.884 ± 0.036.

Turning to LYFRYWVMDSQASNFHRCRG, the amyloid nucleation score is -0.14 ± 1.

In turn, NLHLGMEFTCELRCYWIRLP registered an amyloid nucleation score of 0.279 ± 0.5.

For YGWRSRYVPCPAGRRCVMSQ, the amyloid nucleation score came to 0.53 ± 0.2.

FSLCANCNIMMPRSFLSYT returned an amyloid nucleation score of 5.24 ± 0.078.

The substance TFGLHIHKPRMPPHGPWFSL returned an amyloid nucleation score of -0.172 ± 0.34.

LYDVAQDEPLVSRMGLFDPR returned an amyloid nucleation score of 3.46 ± 0.069.

LLGESRGVDSLQTTLWRSRR returned an amyloid nucleation score of 0.334 ± 0.24.

As to NVFKGPVLHGFRDRISWVKD, the amyloid nucleation score result is “inactive”.

Take RFLTCGNFMR: the amyloid nucleation score turned out to be 0.214 ± 0.74.

Turning to WRQSVQ, the amyloid nucleation score was 1.12 ± 0.33.

In the case of CGNNCTQYRHDWWGGMKLRD, the amyloid nucleation score was determined as 2.38 ± 0.085.

Take LISSSFRSVLRPNWTPLKVC: the amyloid nucleation score result is “inactive”.
